Measured values from publication PMC9482650, “Quantitative fragmentomics allow affinity mapping of interactomes” (Nature Communications, 2022).

Key:
Assay in all cases: holdup assay
Set-up in all cases: key: below the threshold = too weak to quantify, mostly under pKd 3.1 to 4
[1] = target: T1, PDZD2_2, O15018
T1 sequence (O15018 329-429, limits assumed, looked up): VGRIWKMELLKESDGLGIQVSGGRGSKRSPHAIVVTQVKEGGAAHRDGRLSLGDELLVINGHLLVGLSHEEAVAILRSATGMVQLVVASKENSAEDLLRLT

[2] = target: AHNAK1, Q09666
[3] = target: T2, GRIP1_3, Q9Y3R0
T2 sequence (Q9Y3R0 247-346, limits assumed, looked up): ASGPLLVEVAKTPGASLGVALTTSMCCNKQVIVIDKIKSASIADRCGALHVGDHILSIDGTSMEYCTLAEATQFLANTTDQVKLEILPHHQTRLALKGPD

[4] = target: T3, GRIP1_4, Q9Y3R0
T3 sequence (Q9Y3R0 467-571, limits assumed, looked up): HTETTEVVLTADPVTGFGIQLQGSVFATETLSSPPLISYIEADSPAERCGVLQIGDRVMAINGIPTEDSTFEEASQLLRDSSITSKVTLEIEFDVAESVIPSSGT

[5] = target: T4, APBA2_1, Q99767
T4 sequence (Q99767 563-664, limits assumed, looked up): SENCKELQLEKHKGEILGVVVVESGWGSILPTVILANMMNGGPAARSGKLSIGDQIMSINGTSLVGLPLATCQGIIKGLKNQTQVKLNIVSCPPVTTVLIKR

[6] = target: NHERF4_1, Q86UT5-2
[7] = target: DLG1_1, Q12959
[8] = target: GORASP1, Q9BQQ3
[9] = target: LNX1_3, Q8TBB1
[10] = target: PICK1, Q9NRD5
[11] = target: T5, HTRA3, P83110
T5 sequence (P83110 354-453, limits assumed, looked up): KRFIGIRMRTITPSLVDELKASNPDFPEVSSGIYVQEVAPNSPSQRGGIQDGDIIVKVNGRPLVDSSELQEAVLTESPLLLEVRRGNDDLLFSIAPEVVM

[12] = target: PDZRN4_1, Q6ZMN7
[13] = target: Inadl_1, Q8NI35
[14] = target: Inadl_9, Q8NI35
[15] = target: DLG2_3, Q15700
[16] = target: T6, DLG3_2, Q92796
T6 sequence (Q92796 221-321, limits assumed, looked up): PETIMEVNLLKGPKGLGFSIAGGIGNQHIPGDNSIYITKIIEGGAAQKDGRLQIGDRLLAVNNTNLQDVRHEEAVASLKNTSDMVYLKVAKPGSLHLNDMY

[17] = target: Inadl_10, Q8NI35
[18] = target: T7, SNTB1, Q13884; details: plain residues with an end cap or a label only (N-terminal biotin on a linker: ttds)
T7 sequence (Q13884 107-205, limits assumed, looked up): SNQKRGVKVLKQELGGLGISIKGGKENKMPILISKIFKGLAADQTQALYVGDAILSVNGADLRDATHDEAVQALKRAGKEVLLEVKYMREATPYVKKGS

[19] = target: SCRIB_3, Q14160
[20] = target: T8, PCLO, Q9Y6V0
T8 sequence (Q9Y6V0 4491-4600, limits assumed, looked up): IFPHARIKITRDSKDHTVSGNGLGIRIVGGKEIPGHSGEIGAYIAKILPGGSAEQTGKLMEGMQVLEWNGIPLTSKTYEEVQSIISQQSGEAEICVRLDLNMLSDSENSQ

[21] = target: T9, DFNB31_1, Q9P202
T9 sequence (Q9P202 135-233, limits assumed, looked up): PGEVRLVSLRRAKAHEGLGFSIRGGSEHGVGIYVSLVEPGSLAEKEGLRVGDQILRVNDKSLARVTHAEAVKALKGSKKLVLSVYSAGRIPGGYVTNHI

[22] = target: T10, MPP7, Q5T2T1
T10 sequence (Q5T2T1 134-230, limits assumed, looked up): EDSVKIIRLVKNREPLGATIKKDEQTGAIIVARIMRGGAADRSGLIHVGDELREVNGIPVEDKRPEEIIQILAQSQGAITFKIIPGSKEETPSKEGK

[23] = target: Inadl_5, Q8NI35
[24] = target: DLG1_2, Q12959
[25] = target: T11, GRIP1_7, Q9Y3R0
T11 sequence (Q9Y3R0 999-1096, limits assumed, looked up): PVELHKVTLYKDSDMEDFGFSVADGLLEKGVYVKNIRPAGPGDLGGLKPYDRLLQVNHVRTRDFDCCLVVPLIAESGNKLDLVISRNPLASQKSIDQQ

[26] = target: T12, LIN7B, Q9HAP6
T12 sequence (Q9HAP6 88-185, limits assumed, looked up): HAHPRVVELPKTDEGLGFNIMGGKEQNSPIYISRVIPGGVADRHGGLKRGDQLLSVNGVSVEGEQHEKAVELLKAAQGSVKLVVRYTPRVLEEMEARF

[27] = plain residues with an end cap or a label only (N-terminal biotin on a linker: ttds)
[28] = plain residues with an end cap or a label only (N-terminal biotin on a linker: ahx)

Chain of PICK1, Q9NRD5 (Q9NRD5 17-115): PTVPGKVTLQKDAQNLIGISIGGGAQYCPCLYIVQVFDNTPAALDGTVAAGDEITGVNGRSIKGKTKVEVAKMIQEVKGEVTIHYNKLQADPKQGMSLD
Chain of Inadl_5, Q8NI35 (Q8NI35 673-780): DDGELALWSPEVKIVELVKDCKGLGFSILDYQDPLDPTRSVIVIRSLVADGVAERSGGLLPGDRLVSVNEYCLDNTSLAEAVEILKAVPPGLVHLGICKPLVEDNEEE
Chain of AHNAK1, Q09666 (Q09666 4-100): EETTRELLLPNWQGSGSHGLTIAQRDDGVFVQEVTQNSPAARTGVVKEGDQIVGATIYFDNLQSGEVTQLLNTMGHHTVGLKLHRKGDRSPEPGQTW
Chain of LNX1_3, Q8TBB1 (Q8TBB1 500-596): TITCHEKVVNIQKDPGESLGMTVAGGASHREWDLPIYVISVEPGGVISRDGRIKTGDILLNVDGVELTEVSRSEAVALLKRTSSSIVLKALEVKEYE
Chain of NHERF4_1, Q86UT5-2 (Q86UT5 other isoform, or with tags, fused parts or gaps): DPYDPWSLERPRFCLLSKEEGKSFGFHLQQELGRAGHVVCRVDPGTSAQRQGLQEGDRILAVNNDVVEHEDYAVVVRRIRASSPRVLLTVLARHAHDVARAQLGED
Chain of SCRIB_3, Q14160 (Q14160 999-1103): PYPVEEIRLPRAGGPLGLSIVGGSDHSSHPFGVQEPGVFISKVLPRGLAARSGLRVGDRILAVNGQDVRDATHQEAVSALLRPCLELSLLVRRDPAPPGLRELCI
Chain of GORASP1, Q9BQQ3 (Q9BQQ3 1-208): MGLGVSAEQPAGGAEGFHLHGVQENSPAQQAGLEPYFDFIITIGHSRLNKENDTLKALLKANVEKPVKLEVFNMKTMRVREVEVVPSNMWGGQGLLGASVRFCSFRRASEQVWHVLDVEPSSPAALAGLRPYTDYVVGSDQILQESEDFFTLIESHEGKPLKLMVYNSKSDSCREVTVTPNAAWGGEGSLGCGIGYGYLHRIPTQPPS
Chain of Inadl_9, Q8NI35 (Q8NI35 1530-1615): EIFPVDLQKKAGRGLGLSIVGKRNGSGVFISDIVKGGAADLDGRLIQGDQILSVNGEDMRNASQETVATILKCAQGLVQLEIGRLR
Chain of Inadl_1, Q8NI35 (Q8NI35 113-229): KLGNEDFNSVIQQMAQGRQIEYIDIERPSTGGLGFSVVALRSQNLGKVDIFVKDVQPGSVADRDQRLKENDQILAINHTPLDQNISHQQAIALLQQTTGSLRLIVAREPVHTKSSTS
Chain of Inadl_10, Q8NI35 (Q8NI35 1673-1763): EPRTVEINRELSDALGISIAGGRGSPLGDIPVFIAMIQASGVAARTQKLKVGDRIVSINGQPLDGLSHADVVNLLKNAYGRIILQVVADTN
Chain of PDZRN4_1, Q6ZMN7 (Q6ZMN7 213-318): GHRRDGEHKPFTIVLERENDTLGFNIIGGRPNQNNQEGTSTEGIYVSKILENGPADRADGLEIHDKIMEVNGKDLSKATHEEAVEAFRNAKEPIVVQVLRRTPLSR

QRQARSETLV [HPV59-E6, Q81964]
pKd [1, 27]: 4.37
pKd [2, 27]: below the threshold
pKd [3, 27]: below the threshold
pKd [4, 27]: below the threshold
pKd [5, 27]: below the threshold
pKd [6, 27]: below the threshold
pKd [7, 27]: 5.05
pKd [8, 27]: below the threshold
pKd [9, 27]: below the threshold
pKd [10, 27]: 3.85
pKd [11, 27]: 3.69
pKd [12, 27]: 4.04
pKd [13, 27]: below the threshold
pKd [14, 27]: below the threshold
pKd [15, 27]: 4.84
pKd [16, 27]: 5.17
pKd [17, 27]: below the threshold
pKd [18]: 3.86
pKd [19, 27]: 3.86
pKd [20, 27]: below the threshold
pKd [21, 27]: below the threshold
pKd [22, 27]: below the threshold
pKd [23, 27]: 3.9
pKd [24, 27]: 5.56
pKd [25, 27]: below the threshold
pKd [26, 27]: below the threshold

LSDPSVSTVV [GRIN1, Q05586;Q05586-2]
pKd [1, 28]: 4.44
pKd [2, 28]: below the threshold
pKd [3, 28]: below the threshold
pKd [4, 28]: below the threshold
pKd [5, 28]: below the threshold
pKd [6, 28]: below the threshold
pKd [7, 28]: 4.06
pKd [8, 28]: below the threshold
pKd [9, 28]: below the threshold
pKd [10, 28]: below the threshold
pKd [11, 28]: below the threshold
pKd [12, 28]: below the threshold
pKd [13, 28]: below the threshold
pKd [14, 28]: below the threshold
pKd [15, 28]: 4.26
pKd [16, 28]: 4.58
pKd [17, 28]: below the threshold
pKd [19, 28]: below the threshold
pKd [20, 28]: below the threshold
pKd [21, 28]: below the threshold
pKd [22, 28]: below the threshold
pKd [23, 28]: below the threshold
pKd [24, 28]: 4.51
pKd [25, 28]: below the threshold
pKd [26, 28]: below the threshold

SKPTRRETEV [HPV35-E6, P27228]
pKd [1, 27]: 3.78
pKd [2, 27]: below the threshold
pKd [3, 27]: below the threshold
pKd [4, 27]: below the threshold
pKd [5, 27]: below the threshold
pKd [6, 27]: below the threshold
pKd [7, 27]: 5.02
pKd [8, 27]: below the threshold
pKd [9, 27]: below the threshold
pKd [10, 27]: below the threshold
pKd [11, 27]: below the threshold
pKd [12, 27]: 4.38
pKd [13, 27]: below the threshold
pKd [14, 27]: below the threshold
pKd [15, 27]: 5.31
pKd [16, 27]: 5.49
pKd [17, 27]: below the threshold
pKd [18]: 4.68
pKd [19, 27]: 4.89
pKd [20, 27]: below the threshold
pKd [21, 27]: below the threshold
pKd [22, 27]: below the threshold
pKd [23, 27]: below the threshold
pKd [24, 27]: 5.64
pKd [25, 27]: below the threshold
pKd [26, 27]: 3.49
